According to the supplement of paper PMC9112550, “Optimization of the antimicrobial peptide Bac7 by deep mutational scanning” (BMC Biology, 2022):

system: Escherichia coli TOP10; assay: shrunken log2 fold change of peptide-encoding DNA abundance (4.5 h post-induction vs induction); higher = less antimicrobial activity (less host growth inhibition); conditions: time post-induction: 4.5 h; library: site-saturation at positions 5, 18, 19, 20
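Also: peptides expressed intracellularly from a pBAD plasmid library in pooled LB shake-flask culture, induced with 0.3% L-arabinose, DNA abundance read by NGS, three biological replicates, DESeq2 with apeglm shrinkage.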

Sequence	shrunken log2 fold change
RRIRFRPPRLPRPRPRPAIIPRP	-0.149
RRIRLRPPRLPRPRPRPLQCPRP	0.121
RRIRYRPPRLPRPRPRPVQPPRP	0.219
RRIRVRPPRLPRPRPRPEHLPRP	-0.171
RRIRERPPRLPRPRPRPDSTPRP	-0.0931
RRIRRRPPRLPRPRPRPHYRPRP	-0.306
RRIRIRPPRLPRPRPRPKLAPRP	-0.117
RRIRDRPPRLPRPRPRPYDRPRP	-0.0075
RRIRDRPPRLPRPRPRPHLTPRP	0.176
RRIRYRPPRLPRPRPRPIDMPRP	-0.315
RRIRMRPPRLPRPRPRPWREPRP	0.189
RRIRMRPPRLPRPRPRPIGLPRP	-0.062
RRIRDRPPRLPRPRPRPTWNPRP	-0.07
RRIRDRPPRLPRPRPRPFNPPRP	-0.509
RRIRLRPPRLPRPRPRPVGKPRP	-0.0227
RRIRKRPPRLPRPRPRPAAHPRP	0.408
RRIRVRPPRLPRPRPRPMIPPRP	-0.319
RRIRIRPPRLPRPRPRPFFVPRP	-0.294
RRIRYRPPRLPRPRPRPALIPRP	-0.273
RRIRKRPPRLPRPRPRPENHPRP	-0.229
RRIRSRPPRLPRPRPRPMFPPRP	-0.22
RRIRTRPPRLPRPRPRPIKEPRP	-0.253
RRIRCRPPRLPRPRPRPAGLPRP	0.206
RRIRARPPRLPRPRPRPHGEPRP	-0.00651
RRIRWRPPRLPRPRPRPNNIPRP	-0.779

Sequence	shrunken log2 fold change
RRIRCRPPRLPRPRPRPEDTPRP	-0.146
RRIRFRPPRLPRPRPRPVVTPRP	-0.756
RRIRERPPRLPRPRPRPSGKPRP	-0.119
RRIRCRPPRLPRPRPRPLEGPRP	0.15
RRIRLRPPRLPRPRPRPVSDPRP	0.128
RRIRTRPPRLPRPRPRPAEWPRP	0.0396
RRIRIRPPRLPRPRPRPEREPRP	0.0556
RRIRIRPPRLPRPRPRPFRQPRP	0.0326
RRIRKRPPRLPRPRPRPQENPRP	0.256
RRIRDRPPRLPRPRPRPDHQPRP	-0.0643
RRIRDRPPRLPRPRPRPTPTPRP	0.194
RRIRNRPPRLPRPRPRPGPWPRP	0.0802
RRIRHRPPRLPRPRPRPRDVPRP	-0.191
RRIRRRPPRLPRPRPRPMLLPRP	-0.0984
RRIRGRPPRLPRPRPRPWTVPRP	-0.0833
RRIRMRPPRLPRPRPRPSKTPRP	0.00519
RRIRYRPPRLPRPRPRPGGRPRP	-0.019
RRIRMRPPRLPRPRPRPDCTPRP	2.27
RRIRKRPPRLPRPRPRPSTKPRP	0.143
RRIRCRPPRLPRPRPRPPSLPRP	0.413
RRIRERPPRLPRPRPRPRVPPRP	0.425
RRIRSRPPRLPRPRPRPCPTPRP	-0.138
RRIRCRPPRLPRPRPRPFVHPRP	-0.891
RRIRLRPPRLPRPRPRPEHSPRP	-0.0185
RRIRIRPPRLPRPRPRPFYNPRP	-0.756

Sequence	shrunken log2 fold change
RRIRWRPPRLPRPRPRPGACPRP	0.188
RRIRCRPPRLPRPRPRPAYNPRP	-0.619
RRIRTRPPRLPRPRPRPPHQPRP	0.237
RRIRSRPPRLPRPRPRPSECPRP	-0.211
RRIRYRPPRLPRPRPRPVSNPRP	-1.07
RRIRVRPPRLPRPRPRPDGIPRP	-0.173
RRIRDRPPRLPRPRPRPMETPRP	-0.00149
RRIRYRPPRLPRPRPRPKHEPRP	-0.0393
RRIRRRPPRLPRPRPRPTRVPRP	0.952
RRIRPRPPRLPRPRPRPGFEPRP	0.225
RRIRHRPPRLPRPRPRPCTPPRP	-0.382
RRIRSRPPRLPRPRPRPQIEPRP	0.0319
RRIRQRPPRLPRPRPRPHCMPRP	-0.0175
RRIRWRPPRLPRPRPRPCGTPRP	0.481
RRIRPRPPRLPRPRPRPYCEPRP	-0.337
RRIRKRPPRLPRPRPRPPTLPRP	1.53
RRIRMRPPRLPRPRPRPTDPPRP	0.00799
RRIRHRPPRLPRPRPRPSFFPRP	-0.41
RRIRTRPPRLPRPRPRPQAIPRP	0.209
RRIRIRPPRLPRPRPRPDQAPRP	-0.002
RRIRTRPPRLPRPRPRPFRFPRP	-0.00476
RRIRWRPPRLPRPRPRPSNVPRP	0.108
RRIRYRPPRLPRPRPRPPAFPRP	-0.242
RRIRYRPPRLPRPRPRPWCHPRP	-0.191
RRIRNRPPRLPRPRPRPDKHPRP	-0.0308
